# Assay results as given in US20140179900A1.
# B1: p4073 C-…, original CETP epitope (peptide)
# peptide: CFGFPEHLLVDFLQSLS
# B2: p4481 C-… (peptide)
# peptide: CFGFPQHLFTDWLQSLS
# B3: p4478 C-… (peptide)
# peptide: CFKPAHVFIDWLQSLS
# B4: p4477 C-… (peptide)
# peptide: CFGFPEHVFIDWLQSLS
# B5: p4479 C-… (peptide)
# peptide: CGFKPAHVFIDWLQSLS
# B6: p4476 C-… (peptide)
# peptide: CFGFPAHVSFDWLQSLS
# B7: p4480 C-… (peptide)
# peptide: CDFGFPAHVFIDWLQSLS
# B8: p4475 C-… (peptide)
# peptide: CFGFPAHFSIDWLQSLS
# B9: p1208 …-C (peptide)
# peptide: FGFPEHLLVDFLQSLSC
# B10: p4474 C-… (peptide)
# peptide: CFGFPAHVFIDWLQSLN
# B11: p4432 C-… (peptide)
# peptide: CFGFPSHIIIDWLQSLS
# B12: p4433 C-… (peptide)
# peptide: CFGFPSHLIIEWLQSLS
# B13: p4434 C-… (peptide)
# peptide: CAAFPAHLLADAAQALA
# B14: p4437 C-… (peptide)
# peptide: CAAAPAHLLVDAAQAAA
# B15: p4436 C-… (peptide)
# peptide: CAAFAAHLLADFLQAAA
# B16: p4435 C-… (peptide)
# peptide: CAAFPAHAAADFLQALA
# B17: p4361 C-… (peptide)
# peptide: CFGFPAHVFIDWLQSLS
# B18: p4362 C-… (peptide)
# peptide: CFGFPAHVYIDWLQSLS
# B19: p4325 C-… (peptide)
# peptide: CFGFPSHLIIDWLQSLS
# Biological target: monoclonal antibody 12G6H5 (“Frida”)
# Assay: inhibition ELISA FIG. 18a, low peptide, 2.5 ng Frida, coat p4073
row,Binder,ELISA signal with competitor
1,B1,0.537
2,B2,0.551
3,B3,2.23
4,B4,0.808
5,B5,2.17
6,B6,2
7,B7,0.521
8,B8,2.21
9,B9,0.712
10,B10,1.45

# Biological target: monoclonal antibody 12G6H5 (“Frida”)
# Assay: inhibition ELISA FIG. 18c, low peptide, 2.5 ng Frida, coat p4073
row,Binder,ELISA signal with competitor
1,B1,0.554
2,B11,0.635
3,B12,1.11
4,B13,1.74
5,B14,1.84
6,B15,1.63
7,B16,1.28
8,B9,0.942

# Biological target: monoclonal antibody 12G6H5 (“Frida”)
# Assay: inhibition ELISA FIG. 10a, 2 µg peptide, 2.5 ng Frida, coat p4073
row,Binder,ELISA signal with competitor
1,B1,0.44
2,B17,0.82
3,B18,0.75

# Biological target: monoclonal antibody 12G6H5 (“Frida”)
# Assay: inhibition ELISA FIG. 10b, 2 µg peptide, 2.5 ng Frida, coat p4073
row,Binder,ELISA signal with competitor
1,B1,0.64
2,B19,0.42

# Biological target: monoclonal antibody 12G6H5 (“Frida”)
# Assay: inhibition ELISA FIG. 18a, high peptide, 2.5 ng Frida, coat p4073
row,Binder,ELISA signal with competitor
1,B1,0.094
2,B2,0.156
3,B3,1.21
4,B4,0.116
5,B5,1.59
6,B6,1.42
7,B7,0.103
8,B8,1.43
9,B9,0.093
10,B10,0.179

# Biological target: monoclonal antibody 12G6H5 (“Frida”)
# Assay: inhibition ELISA FIG. 18c, high peptide, 2.5 ng Frida, coat p4073
row,Binder,ELISA signal with competitor
1,B1,0.088
2,B11,0.096
3,B12,0.672
4,B13,1.46
5,B14,1.67
6,B15,1.69
7,B16,1.97
8,B9,0.101

# Biological target: monoclonal antibody 12G6H5 (“Frida”)
# Assay: inhibition ELISA FIG. 10a, 20 µg peptide, 2.5 ng Frida, coat p4073
row,Binder,ELISA signal with competitor
1,B1,0.1
2,B17,0.16
3,B18,0.15

# Biological target: monoclonal antibody 12G6H5 (“Frida”)
# Assay: inhibition ELISA FIG. 10b, 20 µg peptide, 2.5 ng Frida, coat p4073
row,Binder,ELISA signal with competitor
1,B1,0.15
2,B19,0.1
